Test results published in paper PMC11413003.

Key:
[1] = target: complex III2 (CIII2) dimer of S. cerevisiae (S. cerevisiae) (UniProt P08067); experiment: cryo-EM structure; 10.5 uM supercomplex with 126 uM S. cerevisiae cyt. c (~1:12) in 20 mM KCl, 20 mM KH2PO4 pH 7.4, 0.01 % GDN; 3D classification with a mask over the cyt. c region
[2] = target: S. cerevisiae CIII2CIV1/2 supercomplex (S. cerevisiae) (UniProt P08067)
[3] = target: S. cerevisiae CIII2CIV1/2 supercomplex (S. cerevisiae) (UniProt P08067); experiment: cryo-EM structure; 10.5 uM supercomplex with 126 uM S. cerevisiae cyt. c (~1:12) in 20 mM KCl, 20 mM KH2PO4 pH 7.4, 0.01 % GDN; 3D classification with a mask over the cyt. c region

Substance	stoichiometry N [1]	QH2:O2 oxidoreductase activity (O2 reduction upon addition of QH2) of the supercomplex, cyt. c varied up to ~50 uM, 20 mM KCl [2]	stoichiometry N (cyt. c per CIII monomer-CIV pair) [3]
complex III2 (CIII2) dimer of S. cerevisiae (from UniProt P08067 31-215; P07143 62-309; P00127 1-147; P22289 1-66)	2	–	–
cytochrome c from S. cerevisiae (from UniProt P00044 1-109) (natural protein)	–	50 electrons/s	2
